Consider two substances from publication PMC9974061.

Test [1] addresses galectin-3 (gal-3), recombinant (UniProt P17931).
Test [2] concerns the target TSG101, His-tagged recombinant (UniProt Q99816). Kind of test: BLI; Octet RED96; biotinylated ALIX (1 ug/ml), TSG101 (0.5 ug/ml) or gal-3 (1 ug/ml) on streptavidin biosensors; two-fold dilutions of S (280-70 uM) and P domain (144-36 uM); 20 mM HEPES, 150 mM NaCl, 0.005% Tween 20, 2 mg/ml BSA, pH 7.8; 2:1 model. On the technique in general: BLI is a label-free optical method that tracks binding on a fibre tip over time.

The target in test [3] is apoptosis-linked gene 2-interacting protein X (ALIX), His-tagged recombinant (UniProt Q8WUM4). The test is described as above.
apoptosis-linked gene 2-interacting protein X (ALIX), His-tagged recombinant, sequence (Q8WUM4 whole entry): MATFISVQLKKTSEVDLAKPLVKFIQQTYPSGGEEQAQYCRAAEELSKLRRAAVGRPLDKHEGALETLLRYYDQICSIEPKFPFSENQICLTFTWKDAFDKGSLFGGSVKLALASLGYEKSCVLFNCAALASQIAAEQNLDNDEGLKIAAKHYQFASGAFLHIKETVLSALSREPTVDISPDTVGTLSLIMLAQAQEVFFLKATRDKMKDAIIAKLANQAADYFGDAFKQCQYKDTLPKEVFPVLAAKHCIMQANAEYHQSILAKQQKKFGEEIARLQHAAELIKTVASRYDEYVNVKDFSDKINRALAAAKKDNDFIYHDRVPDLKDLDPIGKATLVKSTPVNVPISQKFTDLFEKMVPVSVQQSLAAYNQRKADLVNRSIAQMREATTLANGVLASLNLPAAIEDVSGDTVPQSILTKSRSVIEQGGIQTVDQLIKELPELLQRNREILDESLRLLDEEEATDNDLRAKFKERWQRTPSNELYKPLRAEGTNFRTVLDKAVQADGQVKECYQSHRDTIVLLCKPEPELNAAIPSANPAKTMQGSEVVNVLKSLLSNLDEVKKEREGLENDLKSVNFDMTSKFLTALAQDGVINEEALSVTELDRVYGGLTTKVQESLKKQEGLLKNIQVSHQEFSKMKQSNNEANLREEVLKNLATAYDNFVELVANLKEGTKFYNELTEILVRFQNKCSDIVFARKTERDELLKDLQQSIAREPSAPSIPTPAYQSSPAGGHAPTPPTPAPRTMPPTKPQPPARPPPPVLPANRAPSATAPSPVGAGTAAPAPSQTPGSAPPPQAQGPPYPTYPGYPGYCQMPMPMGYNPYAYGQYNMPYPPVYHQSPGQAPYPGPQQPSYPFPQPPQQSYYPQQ

galectin-3 (gal-3), recombinant, sequence (P17931 whole entry): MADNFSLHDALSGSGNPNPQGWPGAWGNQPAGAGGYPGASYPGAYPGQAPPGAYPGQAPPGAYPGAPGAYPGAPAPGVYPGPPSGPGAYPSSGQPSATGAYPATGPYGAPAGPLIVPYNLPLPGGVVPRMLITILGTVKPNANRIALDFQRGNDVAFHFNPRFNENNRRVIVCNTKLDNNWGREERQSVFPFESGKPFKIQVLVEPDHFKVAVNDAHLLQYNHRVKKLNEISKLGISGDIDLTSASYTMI
TSG101, His-tagged recombinant, sequence (Q99816 whole entry): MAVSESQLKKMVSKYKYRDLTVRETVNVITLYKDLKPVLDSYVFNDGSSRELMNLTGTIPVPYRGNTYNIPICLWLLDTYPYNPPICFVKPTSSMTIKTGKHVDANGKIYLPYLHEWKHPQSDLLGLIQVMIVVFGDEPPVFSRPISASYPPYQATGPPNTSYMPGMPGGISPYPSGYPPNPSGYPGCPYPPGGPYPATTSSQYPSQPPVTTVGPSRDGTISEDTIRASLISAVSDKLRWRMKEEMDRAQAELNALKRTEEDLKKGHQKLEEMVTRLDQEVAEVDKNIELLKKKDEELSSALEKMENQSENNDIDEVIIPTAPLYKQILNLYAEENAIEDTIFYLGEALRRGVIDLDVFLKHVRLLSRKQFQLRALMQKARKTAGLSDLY

Consider “GII.4 Sydney/2012 virus-like particles (complex)”, for which the GII.4 virus (stool isolate) replication in J2 HIEs at 24 h in the presence of anti-gal-3 antibody in test [1] stood at 98 % reduction.

The Kd is the concentration at which binding is half-saturated. In the case of “GII.4 capsid Shell (S) domain (domain or fragment)”, the figures for the Kd in test [2] and in test [3] were 21.5 µM and 9.92 µM, respectively.
